Data as given in publication PMC6224402, “PIM2-mediated phosphorylation of hexokinase 2 is critical for tumor growth and paclitaxel resistance in breast cancer” (Oncogene, 2018).

Target: T1, GST-tagged HK2 (human, UniProt P52789 1-917)
T1 construct: Hexokinase 2 (HK2), human cDNA cloned into pGEX-4T-1; also called GST-HK2; source: E. coli BL21 (DE3), purified
T1 sequence (looked up): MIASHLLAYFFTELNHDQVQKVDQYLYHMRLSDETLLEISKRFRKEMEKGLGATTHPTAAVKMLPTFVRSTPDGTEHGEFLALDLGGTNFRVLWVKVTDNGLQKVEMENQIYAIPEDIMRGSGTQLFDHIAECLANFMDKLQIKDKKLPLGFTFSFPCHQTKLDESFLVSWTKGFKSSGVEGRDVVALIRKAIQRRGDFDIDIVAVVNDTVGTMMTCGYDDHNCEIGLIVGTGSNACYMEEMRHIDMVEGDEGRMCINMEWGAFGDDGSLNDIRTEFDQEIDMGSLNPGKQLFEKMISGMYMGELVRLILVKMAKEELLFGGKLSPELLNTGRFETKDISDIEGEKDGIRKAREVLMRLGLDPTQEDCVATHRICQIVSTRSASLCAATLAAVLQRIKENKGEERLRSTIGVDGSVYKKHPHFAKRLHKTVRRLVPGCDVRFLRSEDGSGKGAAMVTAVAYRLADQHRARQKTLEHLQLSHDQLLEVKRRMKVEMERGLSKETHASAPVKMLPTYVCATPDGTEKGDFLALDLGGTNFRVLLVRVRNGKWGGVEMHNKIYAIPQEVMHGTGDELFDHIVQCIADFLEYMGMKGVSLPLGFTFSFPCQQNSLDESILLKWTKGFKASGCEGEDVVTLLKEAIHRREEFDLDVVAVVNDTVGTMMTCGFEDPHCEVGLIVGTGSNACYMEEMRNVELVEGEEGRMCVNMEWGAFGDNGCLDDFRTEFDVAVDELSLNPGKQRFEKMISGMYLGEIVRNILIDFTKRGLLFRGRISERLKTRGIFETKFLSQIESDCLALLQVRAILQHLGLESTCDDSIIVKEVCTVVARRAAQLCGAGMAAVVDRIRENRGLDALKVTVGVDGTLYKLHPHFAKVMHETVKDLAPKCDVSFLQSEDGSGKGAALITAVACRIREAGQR
Assay: pull-down; purified GST-tagged HK2 or GST mixed with His-PIM2; GST-binding resin, more than 8 h, five washes with lysis buffer
Details: both partners purified

B1: His-tagged PIM2 (enzyme)
chain: not shown
notes: Serine/threonine kinase PIM2, human cDNA cloned into pet28a; also called His-PIM2; source: E. coli BL21 (DE3), purified
Does B1 bind?
Result: binds
